Read-outs that look alike come from different tables or passages of the source. Where a SMILES comes first, the peptide text is derived from it. [ ]: non-standard residue; d: D form. The star is where a group is joined. ξ: configuration not given here. Dolaproine = CO[C@@H]([C@@H]1CCCN1)[C@@H](C)C(=O)O; Dil = CC[C@H](C)[C@H](NC)[C@@H](CC(=O)O)OC; NMe2Val = CC(C)[C@@H](C(=O)*)N(C)C; ξNMe2Val = CC(C)C(C(=O)*)N(C)C; NMeV = CN[CH](C(=O)O)C(C)C; Ava = NCCCCC(=O)O
How the values were obtained:
U87 cells = assay: Cell killing assay (MTS), U87 cells; assay type: cell-based
Protocol: (§1) SKBr3, human breast cancer cell line, high HER2 expression levels, up to 1,000,000 receptors per cell [Lazar G A, et al Proc Natl Acad Sci USA. […] When confluency was 70-80%, cells were washed with PBS (2×10 ml) and incubated with trypsin for 5-7 min. Complete media was added and the cells were resuspended by pipetting. The cells were recovered by centrifugation (2 min, 2000 rpm), the supernatant was discarded, and the cells were resuspended in complete DMEM (5 ml). The cells were then counted using a haemocytometer and diluted accordingly. They were plated at 4500 cells/well (200 μl) using attachment factor and incubated overnight at 37° C., 5% CO2 in a humidified atmosphere. U87 is a non-HER2 expressing glioblastoma cell line and was grown in a similar way, plated at 1000 cells/well.
(§2) The cells were exposed to the various ADCs diluted in complete media for 96 hours at 37° C., 5% CO2 in a humidified atmosphere. Cell viability was measured using the Promega Aqueous Cell-titre-96™ aqueous one solution cell proliferation kit according to manufacturer's instructions. Briefly, the media was removed and 100 μl of complete phenol red free media, pre-combined with MTS reagent, was added to the cells (20 μl of reagent per 100 μl of media). The plates were read on an ELISA plate reader at 490 nm after a 2 hr incubation in the dark (5% CO2, 37° C.).
(§3) The data (absorption units) were converted to % cell survival by using the untreated controls as the 100% cell survival and the Triton X-100 controls as the 100% cell death. The average absorption value for the latter was subtracted from all the rest of the data in order to get a suitable baseline. The averages were converted to survival and standard error values were obtained for each n value (as a % cell survival). […] Experiments were repeated at least 3 times for each compound tested and a set or an average of the data was plotted and fitted to obtain a dose response curve.
(§4) The cells were recovered by centrifugation (2 min, 2000 rpm), the supernatant was discarded, and the cells were resuspended in complete McCoy's 5A (5 ml). The cells were then counted using a haemocytometer and diluted accordingly. They were plated at 5000 cells/well (200 μl) using attachment factor and incubated overnight at 37° C., 5% CO2 in a humidified atmosphere. U87 is a non-HER2 expressing glioblastoma cell line [Zitron I M et al (2013) BMC Cancer 13:83] and was grown in a similar way, plated at 1000 cells/well (using DMEM media). BT474 is a HER2 expressing breast cancer cell line [Brockhoff G et al (2007) Cell Prolif 40:488-507] and was grown in a similar way, plated at 7500 cells/well (using RPMI media). NCI-N87 is a HER2 expressing gastric cancer cell line [Yamashita-Kashima Y et al (2013) Oncol. Rep 30:1087-93] and was grown in a similar way, plated at 7500 cells/well (using RPMI media).
as §2, with “kit (MTS reagent)” for “kit”
(§5) The data (absorption units) were converted to % cell survival by using the untreated controls as the 100% cell survival and the Triton X-100 controls as the 100% cell death. The average absorption value for the latter was subtracted from all the rest of the data in order to get a suitable baseline. The averages were converted to survival and standard error values were obtained for each n value (as a % cell survival).

BT474 cells = assay: Cell killing assay (MTS), BT474 cells; assay type: cell-based, human
Protocol: as §4
as §2, with “kit (MTS reagent)” for “kit”
as §3, with “dose-response” for “dose response”

SKBr3 cells = assay: Cell killing assay (MTS), SKBr3 cells; assay type: cell-based, human
Protocol: as §1
as §2, with “The cells were exposed to the various ADCs diluted in complete media for 96 hours at 37° C., 5% CO2 in a humidified atmosphere.” left out
as §3, §4
as §2, with “The cells were exposed to the various ADCs diluted in complete media for 96 hours at 37° C., 5% CO2 in a humidified atmosphere.” left out, “kit (MTS reagent)” for “kit”
as §5

[1] = BT474 Cells (HER2++), 96 hours, Table 47
[2] = BT474 Cells (HER2++), 96 hours, Table 47, read-out: IC50
[3] = SKBr3 Cells (HER2+++), 96 hours, Table 47
[4] = SKBr3 Cells (HER2+++), 96 hours, Table 47, read-out: IC50
[5] = U87 Cells (HER2−), 96 hours, Table 50
[6] = U87 Cells (HER2−), 96 hours, Table 50, read-out: IC50
[7] = SKBr3 Cells (HER2 +++), 96 hours, Table 50

CC[C@H](C)[C@@H]([C@@H](CC(=O)N1CCC[C@H]1[C@H](OC)[C@@H](C)C(=O)N[C@@H](Cc1ccccc1)C(=O)O)OC)N(C)C(=O)[C@@H](NC(=O)[C@H](C(C)C)N(C)C)C(C)C [Free drug Auristatin F] (NMe2Val-V[Dil][Dolaproine]F-OH)
IC50 (U87 cells; Homo sapiens, U-87 MG, 96 h, read-out: IC50 pM): > 12500 pM
IC50 (BT474 cells; Homo sapiens, BT-474, 96 h, read-out: IC50 pM): > 2500 pM
IC50 (SKBr3 cells; Homo sapiens, SK-BR-3, 96 h, read-out: IC50 pM): > 5500 pM

CC(C)C(NC(=O)C(C(C)C)N(C)C)C(=O)N(C)C(C(=O)N1CCCC1C(=O)N1CCCC1C(=O)NCCCCC(=O)O)C(C)C (centres unmarked) [Free P5C5 (acid) drug, P5C5] (ξNMe2Val-V[NMeV]PP[Ava]-OH; configuration not given here)
IC50 (U87 cells; Homo sapiens, U-87 MG, 96 h, read-out: IC50 nM U87 Cells (HER2−)): 7.3e+06 ± 900000 pM
IC50 (SKBr3 cells; Homo sapiens, SK-BR-3, 96 h, read-out: IC50 nM SKBr3 Cells (HER2+++)): 2.2e+06 ± 400000 pM

COc1cc2cc(c1Cl)N(C)C(=O)C[C@H](OC(=O)[C@H](C)N(C)C(=O)CCS)[C@]1(C)O[C@H]1[C@H](C)[C@@H]1C[C@@](O)(NC(=O)O1)[C@H](OC)/C=C/C=C(\C)C2 [Free drug DM1]
IC50 (U87 cells; Homo sapiens, U-87 MG, 96 h, read-out: IC50 nM): 50700 pM
IC50 (SKBr3 cells; Homo sapiens, SK-BR-3, 96 h, read-out: IC50 nM): 47600 pM

B1: scFv (TCT1067)-MMAF DAR 8.7 (conjugate)
scFv: SGSGGSGQVQLVQSGAEVKKPGESLKISCKGSGYSFTSYWIAWVRQMPGKGLEYMGLIYPGDSDTKYSPSFQGQVTISVDKSVSTAYLQWSSLKPSDSAVYFCARHDVGYCTDRTCAAWPEWLGVWGQGTLVTVSSGGGGSGGGGSGGGGSQSVLTQPPSVSAAPGQKVTISCSGSSSNIGNNYVSWYQQLPGTAPKLLIYGHTNRPAGVPDRFSGSKSGTSASLAISGFRSEDEADYYCASWDYTLSGWVFGGGTKLTVLMASMTGGQQMG
IC50 μg/ml (BT474 cells; [1]): 0.001 µg/mL
IC50 (BT474 cells; [2]): 35.7 pM
IC50 μg/ml (SKBr3 cells; [3]): 0.00091 µg/mL
IC50 (SKBr3 cells; [4]): 32.5 pM

B2: scFv (TCT1067)-DM1 DAR 3.5 (conjugate)
scFv: B1 scFv
IC50 μg/ml (U87 cells; [5]): 0.641 µg/mL
IC50 (U87 cells; [6]): 22900 pM
IC50 μg/ml (SKBr3 cells; [7]): 0.0417 µg/mL
IC50 (SKBr3 cells; SKBr3 Cells (HER2 +++), 96 hours, Table 50, read-out: IC50): 1490 pM

B3: scFv (TCT1067)-DM1 DAR 5.5 (conjugate)
scFv: B1 scFv
IC50 μg/ml (U87 cells; [5]): 0.419 µg/mL
IC50 (U87 cells; [6]): 14900 pM
IC50 μg/ml (SKBr3 cells; [7]): 0.0078 µg/mL

B4: scFv (TCT1067)-P5C5 DAR 12.5 (conjugate)
scFv: B1 scFv
IC50 μg/ml (BT474 cells; BT474 Cells (HER2++), 96 hours, Table 48): 0.3 µg/mL
IC50 (BT474 cells; BT474 Cells (HER2++), 96 hours, Table 48, read-out: IC50): 10700 pM
IC50 μg/ml (SKBr3 cells; SKBr3 Cells (HER2+++), 96 hours, Table 48): 0.04 µg/mL
IC50 (SKBr3 cells; SKBr3 Cells (HER2+++), 96 hours, Table 48, read-out: IC50): 1420 pM

B5: scFv (TCT)-P5C5, DAR = 12 (conjugate)
scFv: SGSGGSGQVQLVQSGAEVKKPGESLKISCKGSGYSFTSYWIAWVRQMPGKGLEYMGLIYPGDSDTKYSPSFQGQVTISVDKSVSTAYLQWSSLKPSDSAVYFCARHDVGYCSSSNCAAWPEYFQHWGQGTLVTVSSGGGGSGGGGSGGGGSQSVLTQPPSVSAAPGQKVTISCSGSSSNIGNNYVSWYQQLPGTAPKLLIYGHTNRPAGVPDRFSGSKSGTSASLAISGFRSEDEADYYCAAWDDSLSGWVFGGGTKLTVLMASMTGGQQMG
IC50 μg/ml U87 Cells (HER2−) (U87 cells; 96 hours exposure): 100 µg/mL
IC50 (U87 cells; 96 hours exposure, read-out: IC50 nM U87 Cells (HER2−)): 3.57e+06 pM
IC50 μg/ml SKBr3 Cells (HER2+++) (SKBr3 cells; 96 hours exposure): 5.01 ± 1.9 µg/mL
IC50 (SKBr3 cells; 96 hours exposure, read-out: IC50 nM SKBr3 Cells (HER2+++)): 179000 ± 68000 pM

B6: scFv (TCT)-MMAF-C5, DAR 6.6 (conjugate)
scFv: B5 scFv
IC50 μg/ml (U87 cells; U87 Cells (HER2−), 96 hours, Table 46): >5 µg/mL
IC50 μg/ml (BT474 cells; BT474 Cells (HER2++), 96 hours, Table 46): 0.2 µg/mL
IC50 (BT474 cells; BT474 Cells (HER2++), 96 hours, Table 46, read-out: IC50): 7.14 pM
IC50 μg/ml (SKBr3 cells; SKBr3 Cells (HER2+++), 96 hours, Table 46): 0.087 µg/mL
IC50 (SKBr3 cells; SKBr3 Cells (HER2+++), 96 hours, Table 46, read-out: IC50): 3.1 pM

B7: scFv (TCT)-MMAF DAR 8 (conjugate)
scFv: B5 scFv
IC50 μg/ml (BT474 cells; [1]): 0.02 µg/mL
IC50 (BT474 cells; [2]): 714 pM
IC50 μg/ml (SKBr3 cells; [3]): 0.0053 µg/mL
IC50 (SKBr3 cells; [4]): 189 pM
